Values belong to the binder of their own block, whether it stands above or below them.
Key:
[1] = target: T1, IL-18 receptor (IL-18Rα and IL-18Rβ) on HEK-Blue IL-18 cells (UniProt Q13478 19-541; O95256 20-599, limits assumed); assay: cell-based or functional assay
T1 sequence (looked up) 1: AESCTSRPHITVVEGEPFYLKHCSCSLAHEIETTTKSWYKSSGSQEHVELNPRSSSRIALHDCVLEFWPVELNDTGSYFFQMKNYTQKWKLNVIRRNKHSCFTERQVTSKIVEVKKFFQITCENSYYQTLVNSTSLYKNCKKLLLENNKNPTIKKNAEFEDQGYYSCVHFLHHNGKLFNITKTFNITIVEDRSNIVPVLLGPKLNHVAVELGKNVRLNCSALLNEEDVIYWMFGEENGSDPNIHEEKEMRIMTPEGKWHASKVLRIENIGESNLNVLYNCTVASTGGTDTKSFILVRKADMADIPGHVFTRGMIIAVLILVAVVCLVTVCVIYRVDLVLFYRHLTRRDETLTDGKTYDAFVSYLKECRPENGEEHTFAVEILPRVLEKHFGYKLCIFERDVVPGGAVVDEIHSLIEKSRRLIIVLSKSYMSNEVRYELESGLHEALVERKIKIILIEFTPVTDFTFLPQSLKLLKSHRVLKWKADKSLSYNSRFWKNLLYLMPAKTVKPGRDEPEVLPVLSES
T1 sequence (looked up) 2: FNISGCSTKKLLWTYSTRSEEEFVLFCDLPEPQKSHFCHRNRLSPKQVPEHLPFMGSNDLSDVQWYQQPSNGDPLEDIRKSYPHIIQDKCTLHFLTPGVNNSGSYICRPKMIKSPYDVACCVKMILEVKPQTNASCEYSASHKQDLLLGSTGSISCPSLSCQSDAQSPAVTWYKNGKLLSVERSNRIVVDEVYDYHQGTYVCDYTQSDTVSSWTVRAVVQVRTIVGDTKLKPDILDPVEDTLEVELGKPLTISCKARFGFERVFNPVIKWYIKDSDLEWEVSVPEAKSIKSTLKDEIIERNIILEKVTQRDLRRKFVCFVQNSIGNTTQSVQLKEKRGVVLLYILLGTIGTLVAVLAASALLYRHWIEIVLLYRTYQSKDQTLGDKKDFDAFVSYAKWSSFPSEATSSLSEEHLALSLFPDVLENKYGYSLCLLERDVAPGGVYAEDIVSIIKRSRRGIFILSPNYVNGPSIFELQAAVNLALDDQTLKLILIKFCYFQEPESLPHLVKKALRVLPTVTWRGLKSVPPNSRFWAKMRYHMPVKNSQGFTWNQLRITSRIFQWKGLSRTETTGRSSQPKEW

[2] = target: T1, IL-18 receptor (IL-18Rα and IL-18Rβ) on …; assay: cell-based or functional assay; remark: listed apart in the source

HEK-Blue assay, % human IL-18 [1]: 65 % of human IL18 activity
HEK-Blue assay, % hu-IL-18 [2]: 89 % of human IL18 activity
B1: DGL209 (bispecific antibody)
chain 1: QVQLVESGGGLVQAGGSLRLSCAASGRTFSKHAMGWFRQAPGKEREFVAAIDWSGGSTYYADSVKGRFTISRDNAKNTVYLQMDSLKPEDTAVYYCAADSYTDYAQLWLPELESEYDYWGQGTLVTVSSPLAPCPPCPAPEAAGAPSVFLFPPKPKDTLMISRTPEVTCVVVDVSHEDPEVKFNWYVDGVEVHNAKTKPREEQYNSTYRVVSVLTVLHQDWLNGKEYKCKVSNKALPAPIEKTISKAKGQPREPQVCTLPPSRDELTKNQVSLSCAVKGFYPSDIAVEWESNGQPENNYKTTPPVLDSDGSFFLVSKLTVDKSRWQQGNVFSCSVMHEALHNHYTQKSLSLSPGWSHPQFEK
chain 2: QLQLVESGGGLVQAGGSLRLSCAASRSITFSHNVMGWYRQAPGKQRELVASIGSGGSTNYVDSVKGRATISRDNAKKTVYLQMNSLKPEDTAVYYCGVVVGVYRGSLGQGTLVTVSSPLAPCPPCPAPEAAGAPSVFLFPPKPKDTLMISRTPEVTCVVVDVSHEDPEVKFNWYVDGVEVHNAKTKPREEQYNSTYRVVSVLTVLHQDWLNGKEYKCKVSNKALPAPIEKTISKAKGQPREPQVYTLPPCRDELTKNQVSLWCLVKGFYPSDIAVEWESNGQPENNYKTTPPVLDSDGSFFLYSKLTVDKSRWQQGNVFSCSVMHEALHNHYTQKSLSLSPGEPEA

HEK-Blue assay, % human IL-18 [1]: 85 % of human IL18 activity
HEK-Blue assay, % hu-IL-18 [2]: 98 % of human IL18 activity
B2: DGL207 (bispecific antibody)
chain 1: QVQLVESGGGLVQAGGSLRLSCAASGRTFSKHAMGWFRQAPGKEREFVAAIDWSGGSTYYADSVKGRFTISRDNAKNTVYLQMDSLKPEDTAVYYCAADSYTDYAQLWLPELESEYDYWGQGTLVTVSSCPPCPAPEAAGAPSVFLFPPKPKDTLMISRTPEVTCVVVDVSHEDPEVKFNWYVDGVEVHNAKTKPREEQYNSTYRVVSVLTVLHQDWLNGKEYKCKVSNKALPAPIEKTISKAKGQPREPQVCTLPPSRDELTKNQVSLSCAVKGFYPSDIAVEWESNGQPENNYKTTPPVLDSDGSFFLVSKLTVDKSRWQQGNVFSCSVMHEALHNHYTQKSLSLSPGWSHPQFEK
chain 2: QLQLVESGGGLVQAGGSLRLSCAASRSITFSHNVMGWYRQAPGKQRELVASIGSGGSTNYVDSVKGRATISRDNAKKTVYLQMNSLKPEDTAVYYCGVVVGVYRGSLGQGTLVTVSSCPPCPAPEAAGAPSVFLFPPKPKDTLMISRTPEVTCVVVDVSHEDPEVKFNWYVDGVEVHNAKTKPREEQYNSTYRVVSVLTVLHQDWLNGKEYKCKVSNKALPAPIEKTISKAKGQPREPQVYTLPPCRDELTKNQVSLWCLVKGFYPSDIAVEWESNGQPENNYKTTPPVLDSDGSFFLYSKLTVDKSRWQQGNVFSCSVMHEALHNHYTQKSLSLSPGEPEA

From patent US20240383990A1 (DIAGONAL THERAPEUTICS, published 2024)
